Measured values taken from patent US20160279079A1, “COMPOSITIONS AND METHODS FOR TREATING BONE DISEASES” (INDIANA UNIVERSITY RESEARCH AND TECHNOLOGY CORPORATION, priority 2013, published 2016).

Columns and labels:
[1] = test system: c-Fos; test: Quantitative real-time PCR, c-Fos mRNA in RAW264.7 cells; assay type: cell-based, mouse; details: day 2
Method: (§1) METHOD EXAMPLE. Quantitative real-time PCR. Total RNA was extracted using an RNeasy Plus mini kit (Qiagen, Germantown, Md., USA). Reverse transcription was conducted with high capacity cDNA reverse transcription kits (Applied Biosystems, Carlsbad, Calif., USA), and quantitative real-time PCR was performed using ABI 7500 with Power SYBR green PCR master mix kits (Applied Biosystems). We evaluated mRNA levels of ATF4, Osteocalcin (OCN), NFATcl, c-Fos, tartrate-resistant acid phosphatase (TRAP), and osteoclast-associated receptor (OSCAR) with the PCR primers listed in Table 1. GAPDH was used for internal control. The relative mRNA abundance for the selected genes with respect to the level of GAPDH mRNA was expressed as a ratio of Streated/Scontrol, where Streated=mRNA level for the cells treated with chemical agents, and Scontrol=mRNA level for control cells.
(§2) METHOD EXAMPLE. Partial suppression of mRNA levels of NFATcl, c-Fos, TRAP, and OSCAR by salubrinal. […] On day 2, for instance, the RANKL-driven increase was 9.4±0.5 fold (NFATcl), 1.9±0.1 fold (c-fos), 165±4.2 fold (TRAP), and 467±22 fold (OSCAR). The reduction by 20 μM salubrinal was 46% (NFATcl), 32% (c-fos), 35% (TRAP), and 21% (OSCAR) (FIG. 5A).
(§3) METHOD EXAMPLE. Reduction of RANKL-induced NFATcl, c-Fos, TRAP, and OSCAR by guanabenz. […] The normalized level of “1” was defined as the level for the cells that were not treated with RANKL without administration of guanabenz.

[2] = test system: RAW264.7 mouse pre-osteoclast (monocyte/macrophage) cells; test: Cell mortality and live cell numbers (trypan blue, hemacytometer); assay type: cell-based; details: incubation with RANKL (20 ng/ml), 24 h
Method: METHOD EXAMPLE. Cell culture. MC3T3 E1 mouse osteoblast-like cells (clone 14—MC3T3 E1-14; and no clonal cells in supplementary figures), and RAW264.7 mouse pre-osteoclast (monocyte/macrophage) cells were cultured in αMEM containing 10% fetal bovine serum and antibiotics (50 units/ml penicillin, and 50 μg/ml streptomycin; Life Technologies, Grand Island, N.Y., USA). Cells were maintained at 37° C. and 5% CO2 in a humidified incubator. Cell mortality and live cell numbers were determined 24 h after the treatment with 20 ng/ml RANKL (PeproTech, Rocky Hills, N.C., USA) in response to 0.1-20 μM salubrinal or 1-20 μM guanabenz acetate (Tocris Bioscience, Ellisville, Mo., USA). Cells were stained with trypan blue and the numbers of live and dead cells were counted using a hemacytometer.
METHOD EXAMPLE. Inhibition of osteoclastogenesis of RAW264.7 cells by salubrinal. The primary aim of this study is to evaluate the effects of salubrinal on osteoclastogenesis. In response to 0.1-20 μM salubrinal for 24 h, cell mortality and live cell numbers of RAW264.7 pre-osteoclasts was examined. […] The number of live cells was increased by ˜50% by incubation with RANKL, and administration of 10-20 μM salubrinal reduced the numbers approximately by 10% (FIG. 3B).
METHOD EXAMPLE. Inhibitory effects of guanabenz on osteoclastogenesis of RAW264.7 cells. To further examine a potential involvement of p-eIF2α in regulation of osteoclastogenesis, we employed guanabenz that also acts as an inhibitor of de-phosphorylation of eIF2α was evaluated. […] Compared to the number of TRAP-positive multi-nucleated cells of 377 39 (RANKL only), guanabenz reduced the number of differentiated osteoclasts to 364±38 (1 μM), 288±51 (5 μM), 189±25 (10 μM), and 73±16 (20 μM).

[3] = test system: tartrate-resistant acid phosphatase (TRAP); test: Quantitative real-time PCR, TRAP mRNA in RAW264.7 cells; assay type: cell-based, mouse; details: day 2
Method: as §1, §2, §3

[4] = test system: NFATc1; test: Western immunoblotting, NFATc1 expression in RAW264.7 cells; assay type: cell-based, mouse; details: 24 h
Method: METHOD EXAMPLE. Downregulation of NFATcl in RAW264.7 cells by salubrinal. NFATcl is a transcription factor critical for activating osteoclastogenesis. […] The RANKL-induced expression of NFATcl was reduced by administration of 5-20 μM salubrinal on both days, and the effect of salubrinal was dose dependent (FIG. 4).
as §3
METHOD EXAMPLE. Western Immunoblotting. Cells were lysed in a radioimmunoprecipitation assay (RIPA) buffer containing protease inhibitors (Santa Cruz Biotechnology, Santa Cruz, Calif., USA) and phosphatase inhibitors (Calbiochem, Billerica, Mass., USA). Isolated proteins were fractionated using 10-15% SDS gels and electro-transferred to Immobilon-P membranes (Millipore, Billerica, Mass., USA). The membrane was incubated for 1 h with primary antibodies followed by 45 min incubation with goat anti-rabbit or anti-mouse IgG conjugated with horseradish peroxidase (Cell Signaling, Danvers, Mass., USA). We used antibodies against ATF4, NFATcl (Santa Cruz), p-eIF2α (Thermo Scientific, Waltham, Mass., USA), eIF2α, caspase 3, cleaved caspase 3, p38 and p-p38 mitogen activated protein kinase (MAPK), extracellular signal-regulated kinase (ERK) and p-ERK, nuclear factor kappa B (NFκB) p65 and p-NFκB p65 (Cell Signaling), and β-actin (Sigma). Protein levels were assayed using a SuperSignal west femto maximum sensitivity substrate (Thermo Scientific), and signal intensities were quantified with a luminescent image analyzer (LAS-3000, Fuji Film, Tokyo, Japan).
METHOD EXAMPLE. Temporal profile of p-eIF2α and NFATcl. […] Note that the normalized level of “1” in FIG. 6C was defined as the level for the cells that were not treated with RANKL without administration of guanabenz.

[5] = test system: NFATc1; test: Quantitative real-time PCR, NFATc1 mRNA in RAW264.7 cells; assay type: cell-based, mouse; details: day 2
Method: as §1, §2, §3

[6] = test system: osteoclast-associated receptor (OSCAR); test: Quantitative real-time PCR, OSCAR mRNA in RAW264.7 cells; assay type: cell-based, mouse; details: day 2
Method: as §1, §2, §3

B1: RANKL: cytokine belonging to the tumor necrosis factor family; stimulus for osteoclast differentiation (PeproTech) (protein, UniProt O14788 140-317, looked up)
Tumor necrosis factor ligand …: IRAEKAMVDGSWLDLAKRSKLEAQPFAHLTINATDIPSGSHKVSLSSWYHDRGWAKISNMTFSNGKLIVNQDGFYYLYANICFRHHETSGDLATEYLQLMVYVTKTSIKIPSSHTLMKGGSTKYWSGNSEFHFYSINVGGFFKLRSGEEISIEVSNPSLLDPDQDATYFGAFKVRDID
B1 was tested, and the “RANKL-driven increase of c-fos mRNA level” value [1] was 1.9±0.1 fold, the “increase of the number of live cells” value [2] was roughly 50% and the “RANKL-driven increase of TRAP mRNA level” value [3] was 165±4.2 fold. For the same molecule, the “elevation of NFATc1 by addition of RANKL” value [4] was 13.4±3.2 fold, the “RANKL-driven increase of NFATc1 mRNA level” value [5] was 9.4±0.5 fold and the “RANKL-driven increase of OSCAR mRNA level” value [6] was 467±22 fold.
